Measurements taken from publication PMC11266601.

Biological target: RDTND-RIDC/A (DUF1-RIDC/A, residues 1959–2901, C2838 to alanine), from the 6×His construct (V. vulnificus MO6-24/O)
Assay: ITC

For “Human calmodulin2 (CaM), 6×His/GST tag cleaved (from UniProt P0DP24 1-149) (natural protein)”, the stoichiometry N was 1.
